In the supplement of paper PMC9170038:

System: MS2 coat protein
Assay: apparent KD of MS2 coat protein; designed switch direction (-1 OFF switch, 1 ON switch): -1; higher = weaker reporter binding
In short: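 Designed RNA switches were transcribed on Illumina chips by stalled E. coli RNA polymerase and titrated with SNAP-549-labelled MS2 coat protein from 0.7 or 1.5 nM, doubling to 3 µM. Step length ran from 0.8–1.5 h at the lowest concentration to 10–20 min at the highest. The apparent KD is the median over clusters for each design, from curve-fitted normalised cluster fluorescence.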

[1] = Eterna round: R95, input ligand: FMN 200 uM
[2] = Eterna round: R95, input ligand: microRNA oligo, concentration not stated
[3] = Eterna round: R95, input ligand: none
[4] = input ligand: microRNA oligo, concentration not stated

Sequence | apparent KD of MS2 coat protein (input ligand: FMN 200 uM) [nM] | apparent KD of MS2 coat protein (input ligand: none) [nM] | apparent KD of MS2 coat protein [2] [nM] | further results
GCUACUCCAGUCAGGAUAUGGAUCGGCUAAAAGACCCAGAAGGGACUUGAGGAUCACCCAAGUAACGGCUCGGG [Soveare] (Eterna round: R97, puzzle: Brourd's mod of Exclusion 4) | 378 | 54.2 | – | –
GGUACUAACACGAAAGUGUUAGUACAAUAAGCUUGUGAAACAUGAGGAUCACCCAUGUCCUCAUAAGCUCGUCUUAG [salish99_TOv2_r3_005] (puzzle: Sensor v3, turn-off variant 2) | – | – | 392 | apparent KD of MS2 coat protein [1]: 13.4 nM; apparent KD of MS2 coat protein [3]: 12.3 nM
CCGGAAAUGCAGGAUAUCGUAUCGGAAACGAUACGAGAAGGGUAUACAUGAGGAUCACCCAUGUGUCCUACCGG [Fiskers Ex 6 - 21] (puzzle: Exclusion 6) | – | – | 20.6 | –
GUGGUCUAUGUAGGAUAUACGUUUGUGCGAUGCGUAGAAGGACAUGAGGAUCACCCAUGUGUGCGAGGAUCACCCGUGUGUUGU [double] (Eterna round: R96, puzzle: Exclusion NG 1) | 158 | 100 | – | apparent KD of MS2 coat protein [4]: 83.9 nM
UUGGUUAUCUAUGGAAGUAACAUGAGGAUCACCCAUGUAUGUCUUGUUUUUUGUUCGUCAUAGGCCUUUUGUUUGGA [JR_SV3TOV1_Sub023] (puzzle: Sensor v3, turn-off variant 1) | – | – | 24.9 | apparent KD of MS2 coat protein [1]: 24.9 nM; apparent KD of MS2 coat protein [3]: 30.3 nM
GUCAGCUCGUGAGGAUAUACAUGAUAGAUCGAUUAAUUAAUUAAUUUAACAUGAGGAUCACCCAUGUAGAAGGUACGAGCUGAC [ENG2/1-C1] (Eterna round: R96, puzzle: Exclusion NG 2) | – | – | – | apparent KD of MS2 coat protein [4]: 43.3 nM
ACAUGUAAUGCAGGAUAUUUUACACAUGAGGAUCACCCAUGUGACCAGAGGAAUUGCUAUGAGUAAAAGAAGGGUAUGUACAUG [Ex NG2 #57] (Eterna round: R96, puzzle: Exclusion NG 2) | – | – | – | apparent KD of MS2 coat protein [4]: 53.9 nM
GACUUCUCUGAGGAUAUUGCAUCAUACGAUAAAUAAGAAGGCAGAACAUGAGGAUCACCCAUGUGGGUUUCAAG [Bingo-Bango-34] (Eterna round: R97, puzzle: Exclusion 6) | 170 | 81.4 | – | –
GGAUAGUGAGGAUAUCGAUGUUAGGAGGAUGAGGUAGGAUGCGAGAAGGCACAUGAGGAUCACCCAUGUAUGGU [JR_Exclu4_Sub070] (puzzle: Exclusion 4) | – | – | 38.4 | –
GAAUAACAAGUGAGGAUAUGGAGUUGGGAGCCAGUUCAGAAGGCACAUGAGGAUCACCCAUGUGAACCGCAGCU [Eternabot (L2) Solution 45] (Eterna round: R97, puzzle: Brourd's mod of Exclusion 4) | 16.9 | 14.5 | – | –
GCUUGCUUUUUGGUUUUCAACAUGAGGAUCACCCAUGUUCGUCUUGUGCCCGGGCCCGGGCGGUGCCCGGGCCCGGG [A 9%] (Eterna round: R97, puzzle: Sensor, turn-off variant 1) | 17.9 | 17.8 | – | –
GUAUGUAACUAGGAUAUCAGCAUACUUCAAUGUUGAGAAGGAGUUACAUGAGGAUCACCCAUGUAUCCAACAUG [Exclusion 6 - 3:b] (puzzle: Exclusion 6) | – | – | 52.5 | apparent KD of MS2 coat protein [1]: 43.4 nM; apparent KD of MS2 coat protein [3]: 69.1 nM
ACGUGAUAUCUGUCGGUGGACAUGAGGAUCACCCAUGUAAGCUUUUUGCUCGUCUUAUAACCCGGUGACAGACCUUC [Tixeed] (puzzle: Sensor v3, turn-off variant 1) | – | – | 268 | apparent KD of MS2 coat protein [1]: 33.7 nM; apparent KD of MS2 coat protein [3]: 37.3 nM
UAUAACCAAGGAUAUACAUGAGGAUCACCCAUGUAAUAUAAUAUAAUAUAAAUAAAAUGUAGAAGGUGGGAUAU (Eterna round: R97, puzzle: Exclusion 3) | 26.6 | 31.4 | – | –
ACUAAAUAAACAAGCAAUAAUCCAUCGUCUUAUACUAAAACAUGAGGAUCACCCAUGUAACAGGUGGUGUUAAAUAA [JR_Sensorv2_tov2_Sub1202] (Eterna round: R96, puzzle: Sensor v2, turn-off variant 2) | 15.4 | 19.1 | – | apparent KD of MS2 coat protein [4]: 40.6 nM
CAGUACUACAAGCUUCGGGACAUGAGGAUCACCCAUGUUCGUCUUAUUGAUCUAGGUACGCUGACGUACCUAGAUCU [JL-sv1-2.13 Brourd mod] (puzzle: Sensor v3, turn-off variant 1) | – | – | 32.4 | apparent KD of MS2 coat protein [1]: 18.6 nM; apparent KD of MS2 coat protein [3]: 16.1 nM
AGGGAGCGAGGAUAUACAGAGUAAGAAACUACUCCCUCAGUACAUGAGGAUCACCCAUGUAGAAGGCGCCCGAC [EX2 A.2] (Eterna round: R97, puzzle: Exclusion 2) | 33.7 | 20.9 | – | –
AAUUAUUGAUGAGGAUAUUGUGGUGAAACACCACAAGAAGGCAUUAUACACAUGAGGAUCACCCAUGUGAGCCUGAUGCUUAUG [Ex NG1 #55] (Eterna round: R96, puzzle: Exclusion NG 1) | – | – | – | apparent KD of MS2 coat protein [4]: 12.7 nM

Sequence | apparent KD of MS2 coat protein (input ligand: FMN 200 uM) [nM] | apparent KD of MS2 coat protein (input ligand: none) [nM] | apparent KD of MS2 coat protein [2] [nM] | further results
AUAAUGUGAGGAUAUAUGCAUCACGGUGAUACACCGUGAUGAUAGAAGGUACAUGAGGAUCACCCAUGUAGGGC [Mod of Anonveat 16 - Jieux - Exclusion 4] (Eterna round: R97, puzzle: Exclusion 4) | 51.2 | 37.8 | – | –
ACCCAACAUGAGGAUCACCCAUGUCAGGAUAUCCAUCUAUACUCGAAAGAGUAUAGAUGGAGAAGGGACAGAGG [ChP 04-04-2015 #4] (puzzle: Exclusion 1) | – | – | 104 | –
GUUCGACAUGAGGAUCACCCAUGUGAGGAUAUACGAUUAGCUGCUAGGUAGUUAGUAUGUAGAAGGUGCAUGAA [EX1 #73] (Eterna round: R97, puzzle: Exclusion 1) | 55.2 | 41.7 | – | –
GUACUGAAGCUUUGCUUUAGUCGUACAUGAGGAUCACCCAUGUAGGAUAUGGUAGGCUUUGCUUACUAGAAGGAUAGAGUGAUC [JL EXNG3 1.27] (Eterna round: R96, puzzle: Exclusion NG 3) | 81.7 | 119 | – | apparent KD of MS2 coat protein [4]: 31.7 nM
GACUUCUGAGGAUAUACAUAGAUUUACAUGAGGAUCACCCAUGUUCCUCUAUGUAUAAAUGUAGAAGGCAGAAGAU [Mat - Exclusion 5 - JL Mod - D66] (Eterna round: R97, puzzle: Exclusion 5) | 73.8 | 13.2 | – | –
AGAAAUGCCCAUGGCCACAAGCUUUUUGCUUGCCUUACCACAUGAGGAUCACCCAUGUGACAUGGGCUCCUUAUAAU [Teoredale] (puzzle: Sensor v3, turn-off variant 2) | – | – | 13.1 | apparent KD of MS2 coat protein [1]: 15.3 nM; apparent KD of MS2 coat protein [3]: 14 nM
GAAUAGAGAGGAUAUGCGUAGUAGGUAGUAAGAUAUAUCUGACAUGAGGAUCACCCAUGUAGAAGGCUCAGAUC [EX2 #3] (Eterna round: R97, puzzle: Exclusion 2) | 40.1 | 35.2 | – | –
CUUUCGUGAGGAUAUCAGUAGUAAAAAUAUAAAAUUACUACUGAGAAGGCACAUGAGGAUCACCCAUGUUCCUC [salish99_ex3_r3_100] (puzzle: Exclusion 4) | – | – | 24.1 | –
GUACCCAAAGGAUAUACUUGAGGAUCACCCAAGUAUGUCGCUUGGGCACGGUAAAGGAGUAGAAGGUUGGGAAG [Aedti] (Eterna round: R97, puzzle: Exclusion 3) | 12.5 | 11.8 | – | –
GGCAUGUGAGGAUAUGUACCUGAGUGCUUUGCGCUCAGGAAACAGAAGGCACAUGAGGAUCACCCAUGUGAAAU [jl-ex4-4.48 ViennaUCT mod] (Eterna round: R97, puzzle: Exclusion 4) | 96.8 | 251 | – | –
UCCCGUGAAGGAUAUGGUUACAGGCACAUGAGGAUCACCCAUGUCACCUCGAAUACCUGAUCAGAAGGUUACUCGA [Eternabot (Original) Solution 40] (Eterna round: R97, puzzle: Exclusion 5) | 20.1 | 19.9 | – | –
UCGCUGCGAGGAUAUACAUGAGGAUCACCCAUGUACGGGUCCGGGUCUUUGUCUAUUGGUAGAAGGCGCAGUGA [JL Laongeedie mod 9] (puzzle: Exclusion 3) | – | – | 51.5 | –
UCCUUAGCGGUCAGGAUAUACACCCGUUUCUCCUUGUAGAAGGGACAUGAGGAUCACCCAUGUACAGUACAUCU [alecazam64] (Eterna round: R97, puzzle: Brourd's mod of Exclusion 4) | 18.6 | 17.6 | – | –
AAAACACAUGAGGAUCACCCAUGUGAGGAUAUGCUAUGGAAAAUAAAAAUAAAACAUAGCAGAAGGCACAAAGG [Denovo 18] (Eterna round: R96, puzzle: Exclusion 1) | – | – | – | apparent KD of MS2 coat protein [4]: 54 nM
UCCGCCAAAGGAUAUACUGGGCGUUAAAAUCCUCUUAAAAGACAUGAGGAUCACCCAUGUAGAAGGUUGAGGAA [Isererri] (puzzle: Exclusion 2) | – | – | 201 | –
ACCCAACAUGAGGAUCACCCAUGUCAGGAUAUCCAUCAAAAGCACGAAAGGCGAGGAUGGAGAAGGGACAGAGG [ChP 04-04-2015 #2] (puzzle: Exclusion 1) | – | – | 178 | apparent KD of MS2 coat protein [1]: 335 nM; apparent KD of MS2 coat protein [3]: 128 nM
GUAACAUGCUGGUGAUCAUACAUGAGGAUCACCCAUGUAACAAGCUUUUUGCUCGUCUUAAUUUAAUUGAUUACUAG [Stov1/8-A2] (Eterna round: R97, puzzle: Sensor, turn-off variant 1) | 137 | 106 | – | –
AAGGCGGUAGGAUAUACAUGAGGAUCACCCAUGUGUCGCAUAAUCACAGCAGUACUCUGUAGAAGGACCGUCAG [Eternabot (L2) Solution 100] (Eterna round: R97, puzzle: Exclusion 3) | 457 | 114 | – | –
